US20250136717A1 (BYONDIS B V, published 2025)

B1: S312 (antibody)
heavy: not shown
light: DIQMTQSPPSLSASAGDRVTITCRASQGISSRLAWYQQKPEKAPKSLIYAASSLQSGVPSRFSGSGSGTDFTLTISSLQPEDFATYYCQQYNSYPYTFGQGTKLEIKRTVAAPSVFIFPPSDEQLKSGTASVVCLLNNFYPREAKVQWKVDNALQSGNSQESVTEQDSKDSTYSLSSTLTLSKADYEKHKVYACEVTHQGLSSPVTKSFNRGEC
notes: also called Anti-TF tisotumab (TF-011) (naked); parent antibody tisotumab
B2: S313 (antibody)
heavy: not shown
light: QVQLVESGGGLVQPGGSLTLSCTASGFTLDHYDIGWFRQAPGKEREGVSCINNSDDDTYYADSVKGRFTIFMNNAKDTVYLQMNSLKPEDTAIYYCAEARGCKRGRYEYDFWGQGTQVTVSSGGGGSPLGLAGGGSDIQMTQSPPSLSASAGDRVTITCRASQGISSRLAWYQQKPEKAPKSLIYAASSLQSGVPSRFSGSGSGTDFTLTISSLQPEDFATYYCQQYNSYPYTFGQGTKLEIKRTVAAPSVFIFPPSDEQLKSGTASVVCLLNNFYPREAKVQWKVDNALQSGNSQESVTEQDSKDSTYSLSSTLTLSKADYEKHKVYACEVTHQGLSSPVTKSFNRGEC
notes: also called masked tisotumab Qg-BC2T-L9-HC / BC2-Nb-L9-LC
B3: S314 (antibody)
heavy: not shown
light: B2 light
notes: also called masked P41C tisotumab Qg-BC2T-L9-HC (P41C) / BC2-Nb-L9-LC

Key:
[1] = molecular target: T1, Protein A (Protein A sensor tips, Forte Bio, 18-5012) (UniProt P38507 37-327); assay: BLI, Protein A tips
T1 construct: used to correct for the concentration of the antibody samples
Text: (§1) To correct for differences in concentration between the analyte stocks, Protein A binding was estimated for the same samples.

[2] = molecular target: T2, Human Coagulation Factor III/Tissue Factor Protein, His Tag, Cat. No. TF3-H52H5 (human, UniProt P13726 33-251); assay: BLI, TF on Ni-NTA tips
T2 construct: immobilized on Ni-NTA biosensor tips
T2 sequence (P13726 33-251 limits assumed): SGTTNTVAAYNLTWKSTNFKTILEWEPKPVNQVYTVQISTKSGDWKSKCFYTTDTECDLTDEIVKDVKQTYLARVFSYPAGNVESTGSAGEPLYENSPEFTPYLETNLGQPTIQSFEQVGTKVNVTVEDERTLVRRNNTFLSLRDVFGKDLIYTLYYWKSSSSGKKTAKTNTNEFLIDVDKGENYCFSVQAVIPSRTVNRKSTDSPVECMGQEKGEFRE
Text: as §1

[3] = molecular target: T2, Human Coagulation Factor III/Tissue …; assay: BLI, TF signal over Protein A signal
Text: as §1

Row | Binder | Protein A binding after 10 s of association [1] [nm] | TF binding after 10 s of association [2] [nm] | TF/Protein A * 1000 [3]
1 | B1 | 1.75 | 1.12 | 641
2 | B2 | 1.73 |  | 
3 | B3 | 1.37 |  | 
